The results in this text go back to patent US20240294624A1, “ANTI-ERYTHROPOIETIN ANTIBODY” (ANDREMACON S.R.L., priority 2021, published 2024).

One series concerns HOC84. Nature of the series: MTT cell viability assay. The format is cell-based, human. Particulars: 96 hours, 6 μg/ml. The source says:
N. Human ovarian Cell (HOC) cultured in stem cell condition. In particular, HOC84 stem cells were obtained by digestion and cell isolation form a patient-derived xenograft (PDX) model from a high grade serous epithelial ovarian cancer, obtained by serial passages in nude mice.

The next series relates to A549. Briefly: MTT cell viability assay. The format is cell-based, human. Particulars: 96 hours, 6 μg/ml. The source says: J. Lung carcinoma cell line (A549): human lung cancer cells used for drug efficacy screening, biochemical mechanisms and alveolar differentiation;
The next series has as its system cancer cells. Briefly: Neutralizing anti-EPO bioassay (MTT). The format is cell-based. Particulars: nineteen anti-EPO hybridoma culture supernatants compared; 96 h. The procedure: The cell-based assay was used to measure the capacity of each clone to neutralize EPO signaling. […] Optical density values (O.D.) were recorded, and neutralizing activity of each clone was expressed as percentage of viability of cells treated with clones respect to control condition, BM (FIG. 1A).The best n=3 final clones were selected and specific monoclonal antibodies were separated and purified in PBS at PH7.4 sterilized by membrane filtration (produced in culture supernatant and purified by Protein A/G). Furthermore, anti-EPO monoclonal antibodies were sequenced by the following protocol: total RNA was extracted separately from several batches of cultured hybridoma cells, cDNA were then synthesized by reverse transcription using oligo-dT primers, and VH and VL were finally amplified by PCR. VH and VL fragments, respectively amplified by IgG degenerate primers and Kappa-specific primers, are represented by gel electrophoresis (FIG. 1B), confirming that isotypes were IgG Kappa.

For the next series, the system named is DLD1. Briefly: MTT cell viability assay. The format is cell-based, human. Particulars: 96 hours, 6 μg/ml.
A further series relates to U373 cells. Briefly: MTT viability of chemo-resistant cells. The format is cell-based. Particulars: 96 h.
The subject of another series is K562. Briefly: MTT cell viability assay. The format is cell-based, human. Particulars: 96 hours, 6 μg/ml. The source says: H. Myelogenous leukemia cell line (K562); chronic myeloid leukemia cells. Circulating […] levels are reliably higher in myelodysplastic syndromes than in healthy people, with a negative predictive role;
Series [1] has as its system N9 microglia cells. Briefly: Microglia proliferation and morphology after LPS. The format is cell-based, murine. Particulars: after LPS stimulation. The procedure:
N9 microglial cells were seeded in multiwell plates at a concentration of 1.5×10^4 for 24 hours. The following day the cells were administered the following treatments for 24 hours: • LPS; • Anti-EPO (c4) antibody administered alone; • Anti-EPO (c4) antibody in combination with LPS • Anti-EPO (c4) antibody in combination with LPS and FTY720
N9 cells were detached with enzyme, and an aliquot of known volume was labeled with trypan blue and observed under the microscope for counting. Considering that the number of cells in the culture control, without any treatment, as being 100, the percentage of proliferation of N9 cultured in presence of LPS, anti-EPO (C4) antibody, combination of LPS and anti-EPO antibody was calculated (FIG. 15B).
N9 cells were cultured in Iscove's Modified Dulbecco's MEM, IMDM containing streptomycin/1× penicillin and 2 mM L-glutamine, supplemented with FBS (fetal bovine serum) at 5%. The cells were plated at a concentration of 1.5×10^4 cells/cm2 and kept in a thermostatic incubator at 37° C., with 5% C02, for 24 hours, as above. The next day, the cells were exposed to different treatments for 48 hours. At the end of the treatments, cell viability and proliferation were assessed by staining with trypan blue and observed under the microscope for counting.
The microglia were maintained in a basal culture medium and then activated with lipopolysaccharide (LPS). […]

The subject of series [2] is N9 microglia cells. Briefly: Microglia viability, trypan blue. The format is cell-based, murine. Particulars: 48 hours of culture. As for the experimental part: N9 cells were cultured in Iscove's Modified Dulbecco's MEM, IMDM containing streptomycin/1× penicillin and 2 mM L-glutamine, supplemented with FBS (fetal bovine serum) at 5%. The cells were plated at a concentration of 1.5×10^4 cells/cm2 and kept in a thermostatic incubator at 37° C., with 5% CO2, for 24 hours. The next day, the cells were exposed to different treatments for 48 hours. At the end of the treatments, cell viability was assessed by staining with trypan blue. The microglia was maintained in a basal culture medium and then activated with lipopolysaccharide (LPS), a molecule present on the membrane of the Gram-negative bacteria. Furthermore, to study the role of the product “anti-EPO (C4)” in the inhibition of neuroinflammation and then in the inhibition of the activation of microglia, the antibody according to the scheme below was administered, in association and not with LPS, to activate microglia. […]
N9 cells were cultured in Iscove's Modified Dulbecco's MEM, IMDM containing streptomycin/1× penicillin and 2 mM L-glutamine, supplemented with FBS (fetal bovine serum) at 5%. […] At the end of the treatments, cell viability and proliferation were assessed by staining with trypan blue and observed under the microscope for counting. […]

Protocol for DLD1: Cell viability was assessed by 3-(4,5-Dimethylthiazol-2-yl)-2,5-Diphenyl-tetrazoliumBromide (MTT) assay, as a function of redox potential (FIGS. 2-7). Cells (5×10^3/well) were seeded and cultured in 96-well plate for 24 h in Basal Medium (BM). Then, culture media were replaced with fresh media containing the specific treatments, or in BM as a control condition (CTR).
Test was performed in triplicate after 96 h of treatment, by replacing culture media with 100 μL of fresh media added with 10 μL of MTT 5 mg/ml in D-PBS. After 4 h of incubation, media were removed and cells were lysed with 100 μL of 2-propanol/formic acid (95:5, by vol) for 10 min. Then, absorbance was read at 570 nm in microplate reader.

B1: anti-EPO (C4): isolated anti-Erythropoietin monoclonal antibody, VL SEQ ID NO:6, VH SEQ ID NO:14, hybridoma DSM ACC 3370 (antibody, listed as Homo sapiens, V domains shown)
VH: EVKLQESGGGLVQPGGSLKLSCAASGFTFSTYTMSWVRQTPEKRLEWVAYISNGGDRTYYPDTVKGRFTISRDDAKNTLFLQMSSLKSEDTAMYYCARHNITTVPFTMDYWGQGTSVTVSS
VL: DIVLTQSPASLAVSLGQRATISCRASESVDYYGTGLMQWYQQRPGQPPKLLIYGASNVGSGVPARFSGSGSGTDFSLNIHPVEGDDIAMYFCQQTRKVPSTFGGGTKLEIK
modifications: VH amino acid sequence; VL amino acid sequence
On to B1, for which the “cells initially plated dead” value in the series with HOC84 came out at 68%; with A549, 63%; in the series with DLD1, 73%; in the series on K562, 62%. For the same molecule, the “neutralizing activity (inhibition of cancer cell viability)” value in the series on cancer cells was “higher neutralizing activity”. The same molecule showed a percent survival in the series with U373 cells of 30%. Also, the morphology of microglia result in the series with N9 microglia cells [1] is “recover or maintain a branched morphology”. In the series with N9 microglia cells [2], the viability result is “higher than 85%”.
